Earlier results in PMC10716173.
pKd: −log10 of the molar value.

Target: stapled BID BH3 peptide BH3 (Homo sapiens) (UniProt P55957)
Sequence (P55957 80-101): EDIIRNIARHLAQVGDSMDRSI

Chain of BAK (Q16611 2-211): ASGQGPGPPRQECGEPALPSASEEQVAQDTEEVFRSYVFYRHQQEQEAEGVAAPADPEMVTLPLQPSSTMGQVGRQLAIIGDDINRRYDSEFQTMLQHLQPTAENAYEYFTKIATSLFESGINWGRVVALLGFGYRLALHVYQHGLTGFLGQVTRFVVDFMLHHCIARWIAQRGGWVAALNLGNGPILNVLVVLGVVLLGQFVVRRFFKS

pKd: 6.00
Substance: BAK (from UniProt Q16611)
